Here are results for 6 molecules from patent US20160347802A1.

Test [1] addresses T1, human DRAXIN, AVEXIS prey or bait protein (human), Q8NBI3.
T1 chain: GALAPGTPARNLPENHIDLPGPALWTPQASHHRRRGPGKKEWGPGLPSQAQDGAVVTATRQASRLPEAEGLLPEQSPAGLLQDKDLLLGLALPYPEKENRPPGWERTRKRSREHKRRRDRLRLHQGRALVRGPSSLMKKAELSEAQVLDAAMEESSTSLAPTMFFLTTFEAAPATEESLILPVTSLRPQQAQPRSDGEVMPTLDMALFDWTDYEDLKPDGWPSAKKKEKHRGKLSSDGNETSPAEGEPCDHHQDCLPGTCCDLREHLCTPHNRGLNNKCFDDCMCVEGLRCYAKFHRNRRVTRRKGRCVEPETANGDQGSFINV
Kind of test: AVEXIS, prey on bait hDRAXIN, upper value; white = No binding. The conditions noted are these: remark: other sources report otherwise.

Test [2] has as its target T1, human DRAXIN, AVEXIS prey or bait …. In words: AVEXIS, prey on bait hDRAXIN, lower value; white = No binding. The following applies: remark: other sources report otherwise.
Test [3] has the same target. In words: AVEXIS, prey on bait DRAXIN; white = No binding. The following applies: remark: other sources report otherwise.
Test [4] concerns the target biotinylated recombinant human DCC (human) (UniProt P43146). In words: AVEXIS, prey on bait DCC; white = No binding.

B1: human DRAXIN, AVEXIS prey or bait protein, Q8NBI3 26-349 (ligand)
chain: GALAPGTPARNLPENHIDLPGPALWTPQASHHRRRGPGKKEWGPGLPSQAQDGAVVTATRQASRLPEAEGLLPEQSPAGLLQDKDLLLGLALPYPEKENRPPGWERTRKRSREHKRRRDRLRLHQGRALVRGPSSLMKKAELSEAQVLDAAMEESSTSLAPTMFFLTTFEAAPATEESLILPVTSLRPQQAQPRSDGEVMPTLDMALFDWTDYEDLKPDGWPSAKKKEKHRGKLSSDGNETSPAEGEPCDHHQDCLPGTCCDLREHLCTPHNRGLNNKCFDDCMCVEGLRCYAKFHRNRRVTRRKGRCVEPETANGDQGSFINV
On to B1, for which the A486nm in test [1] came to 0.054; in test [2] it was 0.057; in test [3], 0.062.

B2: human DRAXIN, AVEXIS prey or bait protein (ligand)
chain: GALAPGTPARNLPENHIDLPGPALWTPQASHHRRRGPGKKEWGPGLPSQAQDGAVVTATRQASRLPEAEGLLPEQSPAGLLQDKDLLLGLALPYPEKENRPPGWERTRKRSREHKRRRDRLRLHQGRALVRGPSSLMKKAELSEAQVLDAAMEESSTSLAPTMFFLTTFEAAPATEESLILPVTSLRPQQAQPRSDGEVMPTLDMALFDWTDYEDLKPDGWPSAKKKEKHRGKLSSDGNETSPAEGEPCDHHQDCLPGTCCDLREHLCTPHNRGLNNKCFDDCMCVEGLRCYAKFHRNRRVTRRKGRCVEPETANGDQGSFINV
Take B2: the A486nm in test [4] was 0.072.

B3: human Netrin-G1, AVEXIS protein (ligand, UniProt Q9Y2I2 29-510, looked up, not shown: small tags and cut ends)
chain: HYDLCKTQIYTEEGKVWDYMACQPESTDMTKYLKVKLDPPDITCGDPPETFCAMGNPYMCNNECDASTPELAHPPELMFDFEGRHPSTFWQSATWKEYPKPLQVNITLSWSKTIELTDNIVITFESGRPDQMILEKSLDYGRTWQPYQYYATDCLDAFHMDPKSVKDLSQHTVLEIICTEEYSTGYTTNSKIIHFEIKDRFAFFAGPRLRNMASLYGQLDTTKKLRDFFTVTDLRIRLLRPAVGEIFVDELHLARYFYAISDIKVRGRCKCNLHATVCVYDNSKLTCECEHNTTGPDCGKCKKNYQGRPWSPGSYLPIPKGTANTCIPSISSIGNCECFGHSNRCSYIDLLNTVICVSCKHNTRGQHCELCRLGYFRNASAQLDDENVCIECYCNPLGSIHDRCNGSGFCECKTGTTGPKCDECLPGNSWHYGCQPNVCDNELLHCQNGGTCHNNVRCLCPAAYTGILCEKLRCEEAGSCGS
As to B3, the A486nm in test [4] worked out at 0.063.

B4: human Netrin-4, AVEXIS protein (ligand, UniProt Q9HB63 19-628, looked up, not shown: small tags and cut ends)
chain: GLSGVAGVSSRCEKACNPRMGNLALGRKLWADTTCGQNATELYCFYSENTDLTCRQPKCDKCNAAYPHLAHLPSAMADSSFRFPRTWWQSAEDVHREKIQLDLEAEFYFTHLIVMFKSPRPAAMVLDRSQDFGKTWKPYKYFATNCSATFGLEDDVVKKGAICTSKYSSPFPCTGGEVIFKALSPPYDTENPYSAKVQEQLKITNLRVQLLKRQSCPCQRNDLNEEPQHFTHYAIYDFIVKGSCFCNGHADQCIPVHGFRPVKAPGTFHMVHGKCMCKHNTAGSHCQHCAPLYNDRPWEAADGKTGAPNECRTCKCNGHADTCHFDVNVWEASGNRSGGVCDDCQHNTEGQYCQRCKPGFYRDLRRPFSAPDACKPCSCHPVGSAVLPANSVTFCDPSNGDCPCKPGVAGRRCDRCMVGYWGFGDYGCRPCDCAGSCDPITGDCISSHTDIDWYHEVPDFRPVHNKSEPAWEWEDAQGFSALLHSGKCECKEQTLGNAKAFCGMKYSYVLKIKILSAHDKGTHVEVNVKIKKVLKSTKLKIFRGKRTLYPESWTDRGCTCPILNPGLEYLVAGHEDIRTGKLIVNMKSFVQHWKPSLGRKVMDILKRECK
As for B4, the A486nm in test [4] was found to be 0.065. Still for that read-out and setting: to EVMPTLDMALFDWTDYEDLKP (peptide, not shown: small tags and cut ends) [human DRAXIN 21 amino acid Netrin binding fragment, AVEXIS prey or bait protein] belongs 0.06.

B5: human Netrin-G2, AVEXIS protein (ligand, UniProt Q96CW9 18-507, looked up, not shown: small tags and cut ends)
chain: DYDICKSWVTTDEGPTWEFYACQPKVMRLKDYVKVKVEPSGITCGDPPERFCSHENPYLCSNECDASNPDLAHPPRLMFDKEEEGLATYWQSITWSRYPSPLEANITLSWNKTVELTDDVVMTFEYGRPTVMVLEKSLDNGRTWQPYQFYAEDCMEAFGMSARRARDMSSSSAHRVLCTEEYSRWAGSKKEKHVRFEVRDRFAIFAGPDLRNMDNLYTRLESAKGLKEFFTLTDLRMRLLRPALGGTYVQRENLYKYFYAISNIEVIGRCKCNLHANLCSMREGSLQCECEHNTTGPDCGKCKKNFRTRSWRAGSYLPLPHGSPNACATAGSFGNCECYGHSNRCSYIDFLNVVTCVSCKHNTRGQHCQHCRLGYYRNGSAELDDENVCIECNCNQIGSVHDRCNETGFCECREGAAGPKCDDCLPTHYWRQGCYPNVCDDDQLLCQNGGTCLQNQRCACPRGYTGVRCEQPRCDPADDDGGLDCDRAPG
On to B5, for which the A486nm in test [4] turned out to be 0.065.
